In US20230241187A1:

Experiments:
[1] = biological target: insulin receptor (IR); assay: competition ELISA, plate-bound Insulin-R, 20 nM insulin-biotin, competitor 1.95313 nM, replicate 2
[2] = biological target: insulin receptor (IR); assay: competition ELISA, plate-bound Insulin-R, 20 nM insulin-biotin, competitor 500 nM, replicate 2
[3] = biological target: insulin receptor (IR); assay: competition ELISA, plate-bound Insulin-R, 20 nM insulin-biotin, competitor […], average
[4] = biological target: insulin receptor (IR); assay: competition ELISA, plate-bound Insulin-R, 20 nM insulin-biotin, competitor 1.95313 nM, average
[5] = biological target: insulin receptor (IR); assay: competition ELISA, plate-bound Insulin-R, 20 nM insulin-biotin, competitor 15.625 nM, average
[6] = biological target: insulin receptor (IR); assay: competition ELISA, plate-bound Insulin-R, 20 nM insulin-biotin, competitor 3.90625 nM, replicate 1
[7] = biological target: insulin receptor (IR); assay: competition ELISA, plate-bound Insulin-R, 20 nM insulin-biotin, competitor 500 nM, average
[8] = biological target: insulin receptor (IR); assay: competition ELISA, plate-bound Insulin-R, 20 nM insulin-biotin, competitor 31.25 nM, average
[9] = biological target: insulin receptor (IR); assay: competition ELISA, plate-bound Insulin-R, 20 nM insulin-biotin, competitor 62.5 nM, replicate 1
[10] = biological target: insulin receptor (IR); assay: competition ELISA, plate-bound Insulin-R, 20 nM insulin-biotin, competitor 2000 nM, replicate 2
[11] = biological target: insulin receptor (IR); assay: competition ELISA, plate-bound Insulin-R, 20 nM insulin-biotin, competitor 500 nM, replicate 1
[12] = biological target: insulin receptor (IR); assay: competition ELISA, plate-bound Insulin-R, 20 nM insulin-biotin, competitor 250 nM, replicate 1
[13] = biological target: insulin receptor (IR); assay: competition ELISA, plate-bound Insulin-R, 20 nM insulin-biotin, competitor 15.625 nM, replicate 1
[14] = biological target: insulin receptor (IR); assay: competition ELISA, plate-bound Insulin-R, 20 nM insulin-biotin, competitor 62.5 nM, average
[15] = biological target: insulin receptor (IR); assay: competition ELISA, plate-bound Insulin-R, 20 nM insulin-biotin, competitor 1000 nM, replicate 1
[16] = biological target: insulin receptor (IR); assay: competition ELISA, plate-bound Insulin-R, 20 nM insulin-biotin, competitor 1.95313 nM, replicate 1
[17] = biological target: insulin receptor (IR); assay: competition ELISA, plate-bound Insulin-R, 20 nM insulin-biotin, competitor […], replicate 1
[18] = biological target: insulin receptor (IR); assay: competition ELISA, plate-bound Insulin-R, 20 nM insulin-biotin, competitor 250 nM, average
[19] = biological target: insulin receptor (IR); assay: competition ELISA, plate-bound Insulin-R, 20 nM insulin-biotin, competitor 3.90625 nM, average
[20] = biological target: insulin receptor (IR); assay: competition ELISA, plate-bound Insulin-R, 20 nM insulin-biotin, competitor 7.8125 nM, replicate 2
[21] = biological target: insulin receptor (IR); assay: competition ELISA, plate-bound Insulin-R, 20 nM insulin-biotin, competitor 7.8125 nM, average
[22] = biological target: insulin receptor (IR); assay: competition ELISA, plate-bound Insulin-R, 20 nM insulin-biotin, competitor 250 nM, replicate 2
[23] = biological target: insulin receptor (IR); assay: competition ELISA, plate-bound Insulin-R, 20 nM insulin-biotin, competitor 31.25 nM, replicate 2
[24] = biological target: insulin receptor (IR); assay: competition ELISA, plate-bound Insulin-R, 20 nM insulin-biotin, competitor 1000 nM, average
[25] = biological target: insulin receptor (IR); assay: competition ELISA, plate-bound Insulin-R, 20 nM insulin-biotin, competitor 15.625 nM, replicate 2
[26] = biological target: insulin receptor (IR); assay: competition ELISA, plate-bound Insulin-R, 20 nM insulin-biotin, competitor 3.90625 nM, replicate 2
[27] = biological target: insulin receptor (IR); assay: competition ELISA, plate-bound Insulin-R, 20 nM insulin-biotin, competitor […], replicate 2
[28] = biological target: insulin receptor (IR); assay: competition ELISA, plate-bound Insulin-R, 20 nM insulin-biotin, competitor 2000 nM, replicate 1
[29] = biological target: insulin receptor (IR); assay: competition ELISA, plate-bound Insulin-R, 20 nM insulin-biotin, competitor 31.25 nM, replicate 1
[30] = biological target: insulin receptor (IR); assay: competition ELISA, plate-bound Insulin-R, 20 nM insulin-biotin, competitor 1000 nM, replicate 2
[31] = biological target: insulin receptor (IR); assay: competition ELISA, plate-bound Insulin-R, 20 nM insulin-biotin, competitor 2000 nM, average
[32] = biological target: insulin receptor (IR); assay: competition ELISA, plate-bound Insulin-R, 20 nM insulin-biotin, competitor 7.8125 nM, replicate 1
[33] = biological target: insulin receptor (IR); assay: competition ELISA, plate-bound Insulin-R, 20 nM insulin-biotin, competitor 62.5 nM, replicate 2
[34] = biological target: insulin receptor (IR); assay: plate-bound Insulin-R, 20 nM insulin-biotin, 0 nM competitor (Insulin series), average
[35] = biological target: insulin receptor (IR); assay: plate-bound Insulin-R, 20 nM insulin-biotin, 0 nM competitor (ZC701B20 series), average
[36] = biological target: insulin receptor (IR); assay: plate-bound Insulin-R, 20 nM insulin-biotin, 0 nM competitor (ZC1487B26 series), average
[37] = biological target: insulin receptor (IR); assay: plate-bound Insulin-R, 20 nM insulin-biotin, 0 nM competitor (Insulin series), replicate 1
[38] = biological target: insulin receptor (IR); assay: plate-bound Insulin-R, 20 nM insulin-biotin, 0 nM competitor (ZC701B20 series), replicate 2
[39] = biological target: insulin receptor (IR); assay: plate-bound Insulin-R, 20 nM insulin-biotin, 0 nM competitor (ZC701B20 series), replicate 1
[40] = biological target: insulin receptor (IR); assay: plate-bound Insulin-R, 20 nM insulin-biotin, 0 nM competitor (ZC1487B26 series), replicate 2
[41] = biological target: insulin receptor (IR); assay: plate-bound Insulin-R, 20 nM insulin-biotin, 0 nM competitor (IFG-II series), replicate 2
[42] = biological target: insulin receptor (IR); assay: plate-bound Insulin-R, 20 nM insulin-biotin, 0 nM competitor (ZC1487B26 series), replicate 1
[43] = biological target: insulin receptor (IR); assay: plate-bound Insulin-R, 20 nM insulin-biotin, 0 nM competitor (Insulin series), replicate 2
[44] = biological target: insulin receptor (IR); assay: plate-bound Insulin-R, 20 nM insulin-biotin, 0 nM competitor (IFG-II series), average
[45] = biological target: insulin receptor (IR); assay: plate-bound Insulin-R, 20 nM insulin-biotin, 0 nM competitor (IFG-II series), replicate 1
[46] = biological target: ConA (ConA-sepharose beads); assay: pull-down on ConA-sepharose beads, GUS activity in flow through

Sequence of periodate/borohydride modified ß-glucuronidase (enzyme) (P08236 23-651): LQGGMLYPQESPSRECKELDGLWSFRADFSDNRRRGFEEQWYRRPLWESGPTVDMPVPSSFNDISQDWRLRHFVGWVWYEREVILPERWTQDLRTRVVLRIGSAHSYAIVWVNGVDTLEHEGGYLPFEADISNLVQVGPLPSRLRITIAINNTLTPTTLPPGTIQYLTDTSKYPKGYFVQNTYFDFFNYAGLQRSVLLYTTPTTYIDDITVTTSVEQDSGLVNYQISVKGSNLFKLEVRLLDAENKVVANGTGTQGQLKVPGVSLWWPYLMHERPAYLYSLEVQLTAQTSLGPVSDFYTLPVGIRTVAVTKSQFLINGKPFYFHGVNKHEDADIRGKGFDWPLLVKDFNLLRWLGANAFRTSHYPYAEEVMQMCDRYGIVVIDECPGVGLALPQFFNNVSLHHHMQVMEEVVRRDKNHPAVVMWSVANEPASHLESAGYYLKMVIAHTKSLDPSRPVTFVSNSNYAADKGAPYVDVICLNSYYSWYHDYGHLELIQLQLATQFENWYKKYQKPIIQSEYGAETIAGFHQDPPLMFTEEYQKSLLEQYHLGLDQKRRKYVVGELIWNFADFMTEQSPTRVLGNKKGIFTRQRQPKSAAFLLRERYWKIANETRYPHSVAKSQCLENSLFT

Chemiluminescence Intensity [1]	Chemiluminescence Intensity [2]	Chemiluminescence Intensity [3]	Chemiluminescence Intensity [4]	Chemiluminescence Intensity [5]	Chemiluminescence Intensity [6]	Chemiluminescence Intensity [7]	Chemiluminescence Intensity [8]	Chemiluminescence Intensity [9]	Chemiluminescence Intensity [10]	Chemiluminescence Intensity [11]	Chemiluminescence Intensity [12]	Chemiluminescence Intensity [13]	Chemiluminescence Intensity [14]	Chemiluminescence Intensity [15]	Chemiluminescence Intensity [16]	Chemiluminescence Intensity [17]	Chemiluminescence Intensity [18]	Chemiluminescence Intensity [19]	Chemiluminescence Intensity [20]	Substance	further results
1250	379	874	1330	1430	1480	368	1320	991	140	356	644	1490	1110	268	1410	828	605	1420	1480	IGF-II (wild-type, non-biotinylated control ligand) (from UniProt P01344 25-91)	Chemiluminescence Intensity [21]: 1480; Chemiluminescence Intensity [22]: 566; Chemiluminescence Intensity [23]: 1450; Chemiluminescence Intensity [24]: 222; Chemiluminescence Intensity [25]: 1380; Chemiluminescence Intensity [26]: 1370; Chemiluminescence Intensity [27]: 919; Chemiluminescence Intensity [28]: 70; Chemiluminescence Intensity [29]: 1190; Chemiluminescence Intensity [30]: 176; Chemiluminescence Intensity [31]: 105; Chemiluminescence Intensity [32]: 1480; Chemiluminescence Intensity [33]: 1220
1460	57	236	1250	832	1180	61.5	634	479	13	66	102	780	498	43	1050	243	122	1260	1000	Insulin (non-biotinylated control) (from UniProt P01308 25-54; P01308 90-110) (ligand)	Chemiluminescence Intensity [21]: 753; Chemiluminescence Intensity [22]: 141; Chemiluminescence Intensity [23]: 517; Chemiluminescence Intensity [24]: 34; Chemiluminescence Intensity [25]: 885; Chemiluminescence Intensity [26]: 1340; Chemiluminescence Intensity [27]: 229; Chemiluminescence Intensity [28]: 38; Chemiluminescence Intensity [29]: 750; Chemiluminescence Intensity [30]: 25; Chemiluminescence Intensity [31]: 25.5; Chemiluminescence Intensity [32]: 503; Chemiluminescence Intensity [33]: 517
																				Insulin-biotin (biotinylated insulin) (from UniProt P01308 25-54; P01308 90-110) (ligand)	Chemiluminescence Intensity [34]: 1940; Chemiluminescence Intensity [35]: 1840; Chemiluminescence Intensity [36]: 2010; Chemiluminescence Intensity [37]: 2180; Chemiluminescence Intensity [38]: 1890; Chemiluminescence Intensity [39]: 1790; Chemiluminescence Intensity [40]: 2070; Chemiluminescence Intensity [41]: 1960; Chemiluminescence Intensity [42]: 1950; Chemiluminescence Intensity [43]: 1690; Chemiluminescence Intensity [44]: 1920; Chemiluminescence Intensity [45]: 1870
																				periodate/borohydride modified ß-glucuronidase (enzyme)	ConA binding activity lost [46]: 60%
